The target of the experiment is T1, HLA-A*02:01 (human).
T1 construct: MHC monomers captured on streptavidin plates; the UV-sensitive peptide is cleaved and exchanged with the test peptide; also called peptide-receptive MHC molecules; MHC class I
Put plainly: UV ligand-exchange ELISA (anti-b2m); +++ = exchange yield >=50. The source says:
Candidate peptides for T cell based therapies according to the present invention were further tested for their MHC binding capacity (affinity). The individual peptide-MHC complexes were produced by UV-ligand exchange, where a UV-sensitive peptide is cleaved upon UV-irradiation, and exchanged with the peptide of interest as analyzed. Only peptide candidates that can effectively bind and stabilize the peptide-receptive MHC molecules prevent dissociation of the MHC complexes. To determine the yield of the exchange reaction, an ELISA was performed based on the detection of the light chain (β2m) of stabilized MHC complexes. The assay was performed as generally described in Rodenko et al. (Rodenko et al., 2006).
96 well MAXISorp plates (NUNC) were coated over night with 2 ug/ml streptavidin in PBS at room temperature, washed 4× and blocked for 1 h at 37° C. in 2% BSA containing blocking buffer. Refolded HLA-A*02:01/MLA-001 monomers served as standards, covering the range of 15-500 ng/ml. Peptide-MHC monomers of the UV-exchange reaction were diluted 100 fold in blocking buffer. Samples were incubated for 1 h at 37° C., washed four times, incubated with 2 ug/ml HRP conjugated anti-β2m for 1 h at 37° C., washed again and detected with TMB solution that is stopped with […]. Absorption was measured at 450 nm. Candidate peptides that show a high exchange yield (preferably higher than 50%, most preferred higher than 75%) are generally preferred for a generation and production of antibodies or fragments thereof, and/or T cell receptors or fragments thereof, as they show sufficient avidity to the MHC molecules and prevent dissociation of the MHC complexes.
(In general: ELISA stands for enzyme-linked immunosorbent assay.)
The molecule FLPQPVPLSV gave a peptide exchange yield of 50 to 75%.

With ALSELERVL, the peptide exchange yield is 50 to 75%.

Consider ALHPVQFYL, for which the peptide exchange yield lay in the range of 50 to 75%.

LLFDWSGTGRADA yielded a peptide exchange yield of 50 to 75%.

In turn, SLSTELFKV came in with a peptide exchange yield of 50 to 75%.

In turn, LLWAPTAQA came in with a peptide exchange yield of 50 to 75%.

As to ALSYILPYL, the peptide exchange yield lay within 50 to 75%.

With SLLELDGINLRL, the peptide exchange yield is 50 to 75%.

As for GLQDGFQITV, the peptide exchange yield fell in the range of 50 to 75%.

On to YLMDDFSSL (also called COL6A3-015), for which the peptide exchange yield fell in the range of 50 to 75%.

AAIEIFEKV showed a peptide exchange yield of 50 to 75%.

LLDDIFIRL returned a peptide exchange yield of 50 to 75%.

For the molecule ALFHMNILL, the peptide exchange yield was in the range of 50 to 75%.

As to IMPTFDLTKV, the peptide exchange yield fell in the range of 50 to 75%.

For SLAGNLQEL, the peptide exchange yield is 50 to 75%.

In turn, SEWGSPHAAVP registered a peptide exchange yield of 50 to 75%.

In the case of RVIDDSLVVGV, the peptide exchange yield fell in the range of 50 to 75%.

In turn, VIIQNLPAL yielded a peptide exchange yield of 50 to 75%.

Molecule LMYPYIYHV yielded a peptide exchange yield of 50 to 75%.

Turning to ILAVDGVLSV, the peptide exchange yield lay within 50 to 75%.

Turning to GLAGDNIYL, the peptide exchange yield lay within 50 to 75%.

Regarding LLWPSSVPA, the peptide exchange yield lay in the range of 50 to 75%.

Consider LLTTVLINA, for which the peptide exchange yield is 50 to 75%.

Consider ALLSPLSLA, for which the peptide exchange yield was in the range of 50 to 75%.

KLFETVEEL: the peptide exchange yield was 50 to 75%.

Consider ALFETLIQL, for which the peptide exchange yield fell in the range of 50 to 75%.

Molecule KLLNMIFSI registered a peptide exchange yield of 50 to 75%.

For the origin of these results see US20160279215A1, “NOVEL PEPTIDES AND COMBINATION OF PEPTIDES FOR USE IN IMMUNOTHERAPY AGAINST VARIOUS TUMORS” (immatics biotechnologies GmbH, priority 2015, published 2016).
